Values of other authors in article PMC5852440.

Molecular target: EphB4 (Homo sapiens) (UniProt P54760)
Sequence of UniProt P54760 (P54760 16-539): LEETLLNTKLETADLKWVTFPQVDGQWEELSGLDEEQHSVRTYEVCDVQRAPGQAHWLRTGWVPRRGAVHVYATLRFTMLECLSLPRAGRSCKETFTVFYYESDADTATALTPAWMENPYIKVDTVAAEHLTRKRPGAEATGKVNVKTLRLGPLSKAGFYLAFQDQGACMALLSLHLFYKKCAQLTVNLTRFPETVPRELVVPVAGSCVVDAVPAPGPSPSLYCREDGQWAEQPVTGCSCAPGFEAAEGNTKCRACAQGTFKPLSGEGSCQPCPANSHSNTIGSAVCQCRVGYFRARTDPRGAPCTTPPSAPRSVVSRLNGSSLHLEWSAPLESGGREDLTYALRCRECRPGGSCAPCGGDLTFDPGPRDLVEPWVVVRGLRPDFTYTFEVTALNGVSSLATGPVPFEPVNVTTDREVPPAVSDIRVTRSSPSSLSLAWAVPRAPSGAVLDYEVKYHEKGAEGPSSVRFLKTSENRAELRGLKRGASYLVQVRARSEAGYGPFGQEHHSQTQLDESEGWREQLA

Kd: 880 nM
Substance: Epo (from UniProt P01588)
